Where only a bound is given, the exact number is not on record here.

The record followed here is the Immune Epitope Database (IEDB).

Assay [1] deals with HLA-A*02:01. Nature of the assay: IEDB peptide-MHC binding, purified MHC/competitive/radioactivity; ≥ and ≤ were set here for values at or beyond the usual limits of such assays.
The target of another assay is HLA-B*15:01. Nature of the assay: IEDB peptide-MHC binding, purified MHC/direct/fluorescence; filed as Kd, often an IC50 or EC50 that approximates it; ≥ and ≤ were set here for values at or beyond the usual limits of such assays.
A further assay has as its target HLA-A*30:01. The description is as above.
A further assay addresses HLA-A*69:01. Described as above.
The next assay addresses HLA-B*27:05. The description is as above. Particulars: source organism: Brucella abortus.
Assay [2] deals with HLA-A*02:01. The description is as above.
Another assay deals with HLA-B*40:01. Described as above. Particulars: source organism: Brucella abortus.
Another assay concerns the target HLA-A*31:01. The description is as above.
The target in a further assay is HLA-B*07:02. The assay is described as above. Particulars: source organism: Brucella abortus.
In the next assay the target is HLA-A*26:01. Described as above.
In another assay the target is HLA-B*08:01. The description is as above. The note with it: source organism: Brucella melitensis.
In a further assay the target is HLA-B*58:01. Described as above. Particulars: source organism: Brucella abortus.
The next assay has as its target HLA-A*03:01. Described as above.
For the next assay, the target named is HLA-B*44:02. The assay is described as above. The note with it: source organism: Brucella abortus.
For the next assay, the target named is HLA-A*01:01. The assay is described as above. Particulars: source organism: Brucella abortus.
Another assay concerns the target HLA-A*11:01. The description is as above. The note with it: source organism: Salmonella enterica subsp. enterica serovar Choleraesuis str. SC-B67.
Another assay concerns the target HLA-C*06:02. Described as above. The note with it: source organism: Mus musculus.
For the next assay, the target named is HLA-C*15:02. The assay is described as above. The note with it: source organism: Mus musculus.
The target of a further assay is HLA-A*02:03. The assay is described as above.
A further assay has as its target HLA-B*27:03. The assay is described as above.
Assay [3] addresses HLA-B*51:01. Described as above.
The next assay concerns the target HLA-A*68:02. The assay is described as above.
The next assay has as its target HLA-B*15:17. The assay is described as above.
A further assay concerns the target HLA-A*24:03. The assay is described as above.
In the next assay the target is HLA-A*02:12. The assay is described as above.
A further assay addresses HLA-A*02:11. The description is as above.
The target of another assay is HLA-B*39:01. The assay is described as above.
For another assay, the target named is HLA-A*02:19. The assay is described as above.
The target in another assay is HLA-A*02:16. The description is as above.
A further assay concerns the target HLA-B*46:01. The assay is described as above.
In another assay the target is HLA-B*48:01. The experiment in a line: IEDB peptide-MHC binding, purified MHC/competitive/fluorescence; filed as Kd, often an IC50 or EC50 that approximates it; ≥ and ≤ were set here for values at or beyond the usual limits of such assays. Particulars: source organism: Giardia lamblia ATCC 50803.
The next assay deals with HLA-C*07:02. Nature of the assay: IEDB peptide-MHC binding, purified MHC/direct/fluorescence; filed as Kd, often an IC50 or EC50 that approximates it; ≥ and ≤ were set here for values at or beyond the usual limits of such assays. The note with it: source organism: Shigella boydii Sb227.
Assay [4] concerns the target HLA-B*51:01. The experiment in a line: IEDB peptide-MHC binding, purified MHC/competitive/fluorescence; filed as Kd, often an IC50 or EC50 that approximates it; ≥ and ≤ were set here for values at or beyond the usual limits of such assays. The note with it: source organism: Shigella boydii Sb227.
The target in another assay is HLA-B*18:01. The experiment in a line: IEDB peptide-MHC binding, purified MHC/direct/fluorescence; filed as Kd, often an IC50 or EC50 that approximates it; ≥ and ≤ were set here for values at or beyond the usual limits of such assays.
The target of another assay is HLA-B*57:01. The assay is described as above.
The next assay addresses HLA-A*29:02. The assay is described as above. Particulars: source organism: Encephalitozoon cuniculi GB-M1.
In a further assay the target is HLA-B*15:42. Nature of the assay: IEDB peptide-MHC binding, purified MHC/competitive/fluorescence; filed as Kd, often an IC50 or EC50 that approximates it; ≥ and ≤ were set here for values at or beyond the usual limits of such assays. Particulars: source organism: Encephalitozoon cuniculi GB-M1.
A further assay addresses HLA-B*45:06. The assay is described as above. Particulars: source organism: Encephalitozoon cuniculi GB-M1.
The next assay has as its target HLA-B*83:01. The assay is described as above. Particulars: source organism: Encephalitozoon cuniculi GB-M1.
Where [5] appears, read: source organism: Brucella abortus.
[6] abbreviates: source organism: Salmonella enterica.
[7] abbreviates: source organism: Salmonella enterica subsp. enterica serovar Virchow.
The mark [8] stands for this setting: source organism: Vibrio parahaemolyticus AQ3810.
Where [9] appears, read: source organism: Encephalitozoon cuniculi GB-M1.

The term IC50 denotes the concentration that gives 50% inhibition. Regarding SLYNLVAVL, the IC50 with HLA-A*02:01 [1] (source organism: Human immunodeficiency virus 1) is 0.027 µM.

For orientation: Kd means a measure of binding affinity in units of concentration. Consider EKPPVRPIF, for which the Kd is at least 20 µM with HLA-B*15:01 (setting [5]); 8.74 µM with HLA-A*30:01 (source organism: Brucella melitensis); at least 20 µM with HLA-A*69:01 (setting [5]); at least 20 µM with HLA-B*27:05; at least 20 µM with HLA-A*02:01 [2] (setting [5]); at least 20 µM with HLA-B*40:01. For the same sequence, the equilibrium dissociation constant (Kd) with HLA-A*31:01 (setting [5]) is at least 20 µM; with HLA-B*07:02 it was at least 20 µM; in the assay with HLA-A*26:01 (setting [5]), at least 20 µM; with HLA-B*08:01 it was 5.61 µM; in the assay with HLA-B*58:01, at least 20 µM; with HLA-A*03:01 (setting [5]) it was at least 20 µM. The Kd with HLA-B*44:02 and in the assay with HLA-A*01:01 was at least 20 µM in each case.

With RTAKVRAFH, the Kd with HLA-A*30:01 (source organism: Salmonella enterica subsp. enterica serovar Choleraesuis str. SC-B67) worked out at 0.032 µM; with HLA-A*31:01 (setting [6]), 0.15 µM; with HLA-A*03:01 (setting [6]) it was 0.241 µM; with HLA-A*11:01, 0.069 µM.

For the sequence LWFRNHFVF, the Kd with HLA-C*06:02 and with HLA-C*15:02 was at least 20 µM each time.

On to FLCKQYLNL, for which the concentration for half-maximal inhibition (IC50) in the assay with HLA-A*02:01 [1] (source organism: Hepatitis B virus) is 0.029 µM.

For CTWPEASRY, the equilibrium dissociation constant (Kd) in the assay with HLA-A*02:03 (setting [7]) was at least 20 µM; with HLA-B*27:03 (setting [7]) it was at least 20 µM; in the assay with HLA-B*51:01 [3] (setting [7]), at least 20 µM; in the assay with HLA-A*69:01 (setting [7]), at least 20 µM; with HLA-A*68:02 (setting [7]), at least 20 µM; in the assay with HLA-B*15:17 (setting [7]) it was 0.026 µM. The Kd with HLA-A*24:03 (setting [7]), with HLA-A*02:01 [2] (setting [7]), in the assay with HLA-A*02:12 (setting [7]), in the assay with HLA-A*02:11 (setting [7]), in the assay with HLA-B*39:01 (setting [7]) and with HLA-A*03:01 (setting [7]) was at least 20 µM each time. The Kd with HLA-A*02:19 (setting [7]), in the assay with HLA-A*02:16 (setting [7]) and in the assay with HLA-B*46:01 (setting [7]) was at least 20 µM in each case.

In the case of GQPHSLASL, in the assay with HLA-B*48:01, the Kd was 0.149 µM.

VLYRYGSFSV: in the assay with HLA-A*02:01 [1] (source organism: Homo sapiens), the IC50 turned out to be 0.0132 µM.

As for FPAWFAWIF, the dissociation constant (Kd) in the assay with HLA-C*07:02 and with HLA-B*51:01 [4] was at least 20 µM throughout.

With RLDKPLWLH, the dissociation constant Kd with HLA-A*02:03 (setting [8]), in the assay with HLA-B*27:03 (setting [8]), in the assay with HLA-B*15:01 (setting [8]), with HLA-B*51:01 [3] (setting [8]), with HLA-A*69:01 (setting [8]) and with HLA-A*68:02 (setting [8]) was at least 20 µM throughout. For the same sequence, the Kd with HLA-A*02:01 [2] (setting [8]), in the assay with HLA-A*26:01 (setting [8]), in the assay with HLA-A*02:12 (setting [8]), in the assay with HLA-B*39:01 (setting [8]), with HLA-A*02:19 (setting [8]) and with HLA-A*02:16 (setting [8]) was at least 20 µM each time. In addition, the Kd in the assay with HLA-B*46:01 (setting [8]), with HLA-B*18:01 (setting [8]) and with HLA-B*57:01 (setting [8]) was at least 20 µM in each case.

As to ALYIPPYEL, the IC50 in the assay with HLA-A*02:01 [1] (source organism: Rhinovirus A) turned out to be 0.586 µM.

For RQASIELPSM, the half-maximal inhibitory concentration (IC50) in the assay with HLA-A*02:01 [1] (source organism: Homo sapiens) worked out at 1.77 µM.

Consider FSFFMNENF, for which the Kd with HLA-A*02:03 (setting [9]) is at least 20 µM; with HLA-B*27:03 (setting [9]), at least 20 µM; with HLA-B*51:01 [3] (setting [9]) it was at least 20 µM; in the assay with HLA-B*15:17 (setting [9]) it was at most 0.001 µM; with HLA-A*24:03 (setting [9]), at least 20 µM; with HLA-A*29:02, at least 20 µM. In addition, the Kd in the assay with HLA-A*02:01 [2] (setting [9]), with HLA-A*26:01 (setting [9]), in the assay with HLA-A*02:12 (setting [9]), with HLA-A*02:11 (setting [9]), with HLA-B*39:01 (setting [9]) and with HLA-A*03:01 (setting [9]) was at least 20 µM in each case. The dissociation constant Kd in the assay with HLA-A*02:19 (setting [9]) was at least 20 µM; in the assay with HLA-A*02:16 (setting [9]), at least 20 µM; in the assay with HLA-B*18:01 (setting [9]), at least 20 µM; in the assay with HLA-B*57:01 (setting [9]) it was at least 20 µM; with HLA-B*15:42 it was at least 5 µM; with HLA-B*45:06, at least 5 µM. In addition, the Kd in the assay with HLA-B*83:01 was at least 5 µM.
